From US20100136664A1, “CARBOXIN […] FOR FLAMMULINA VELUTIPES” (MYCOMAGIC BIOTECHNOLOGY CO., LTD., priority 2008, published 2010)

Test system: Flammulina velutipes
Experiment: Test for the function of Cbr sequence: growth of transformed strains on PDA plate medium containing carboxin
Assay type: cell-based
Conditions: ten transformed Flammulina velutipes strains (electroporation, pMush-A-mFvCbr) cultured in PDA plate medium containing 2 mg/ml carboxin for one week
Method: The vector for expressing mutant Cbr sequence is pMush-A vector containing GPD promoter (pGPD) and hygromycin resistance (hyg) marker. The mutant Cbr sequence preserved in mFvCbrAMV vector (FIG. 1B) and pMush-A vector were sliced with BamH I and Spe I, respectively. The mutant Cbr sequence (mFvCbr) was ligated to the corresponding sites in pMush-A vector using T4 DNA ligase. The constructed vector is called pMush-A-mFvCbr (FIG. 2B).
The mycelia of Flammulina velutipes were cultured in PDB medium at 25° C. for 1-2 weeks. The resulting mycelia were disrupted by a homogenizator and then treated with lysing enzyme solution containing lysing enzyme (Sigma, St. Louis, Mo., U.S.A.), mannitol and potassium phosphate buffer. The resulting mycelial fragments were dissolved in 100 μl electroporation buffer solution as the competent cells used in the electroporation. The well-prepared competent cells were added to the mutant Cbr DNA solution obtained from Example 2 and then placed on ice for 10 minutes. An electroporation was conducted for the resulting solution using Electro Cell Manipulator ECM 630 Electroporation System (BTX, San Diego, Calif., U.S.A.) to obtain transformed mycelia. […] Ten transformed strains were selected and cultured in PDA plate medium containing 2 mg/ml carboxin for one week. […]

B1: mutant Cbr DNA: Flammulina velutipes succinate dehydrogenase iron-sulfur protein gene with point mutation His238 to Leu (CAC→CTC), SEQ ID NO: 1 (nucleic acid)
DNA: ATGCAGTCCGTCGCCCGTCGTTTCTCTGCCGCCGCCGTGCGCCGTAGCTTTTCTACCACTTCTGTCGCGTTCCAGGCTACACCGCTCGAGAAGCCCGTGCTGAACAAGGAATTCAAGATTTACCGCTGGAATCCTGATGAGCCGGAGAAGAAACCGACGCTACAGAGCTACATAATCGACCTGAACCAGACAGGGCCAATGATTCTGGATGCTCTCATCAAGATTAAAAACGAAATCGACCCTACGCTTACCTTCAGACGAAGTTGTCGCGAGGGCATTTGCGGATCTTGTGCGAGAAAAATCGACGGGCAGAACACGTTGGCCTGTCTCTGCAGGATTGATAGGAATGCTGGGAAGGATTCGAAGATCTATCCCTTACCACACAGTGAGTGTCTCATCTGAGCTCTGCGTATCTGAGTGCTAACTTAGATTCCAGTGTACATCGTCAAGGACCTCGTACCGGATCTCACCTACTTCTACAAGCAGTACAAGTCTATCCAACCATACCTTCAGAACGACAACCCACCTGCGTCAGGTCTGTTCATTATTTTGCACCCTCCCCTTTGCTCGGCTTACCGAATCGCTTCTAGGTGAATTCCTCCAAACGCAAGATGACCGCAAGAAGCTCGACGGACTCTACGAGTGTATCCTTTGCGCGTGTTGTTCGACGTCTTGCCCTTCGTATTGGTGGAACCAAGACGAATACCTTGGACCCGCTACTTTGATGCAAGCATATCGCTGGATCGCCGACTCGAGAGTACGTTCTGCTCGTCGTATCATGTTTTATCTCATACTGATATACTCTTAGGACTCTTATGCCGCAGAACGCAAGGAAAAGCTCCAAAACGAGATGAGCATGTACCGATGCCTCACTATCTTCAACTGCTCGCGGACATGCCCCAAGGGTCTCAACCCCGCTGCCGCCATCGCGAAAATCAAGCTTGAGCTTGCGGCCGAGTAA
modifications: Flammulina velutipes
growth of transformed strains in PDA plate medium containing carboxin (carboxin resistance): Four strains grew
